Measurements from publication PMC12297522.

Experiments:
[1] = target: trastuzumab-PFc29 (human)
[2] = target: trastuzumab (wild-type Fc) (human)

A serum half-life in hiFcRn mice, 5 mg/kg i.v. [1] of 18.9 days and a serum half-life (t1/2) in hiFcRn mice, 5 mg/kg i.v. [2] of 8.3 days were found for “human FcRn-GST (from UniProt P55899 24-365) (receptor)” in this work.

A serum half-life in C57BL/6 mice, 5 mg/kg i.v. [1] of 10.5 days and a serum half-life (t1/2) in C57BL/6 mice, 5 mg/kg i.v. [2] of 13.1 days were found for “mouse FcRn-GST (from UniProt Q61559 22-365) (receptor)” in this work.
